Data from the domain aggregation screens of Martell et al. (2025).

Experiment: soluble fraction after stress (log2 fold change); higher = more stays soluble; pooled small domains, quantitative proteomics
Settings: stress: 75 degC
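Further: 20 min heating vs room temperature control held 20 min.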

Row | Sequence | soluble fraction (log2)
1 | HMSADKAEAAEASLKSFNLRLQAAAMEAGKTFAPVTADQYAEYKAAWGTYIRKGIEGLSESEKKTINVG | -0.243
2 | HMSSHNIALDQDVVVTQLKGKVYLVAADGSQKQLAEGDILPKDAVLITPEGASFKGGNQTFTLS | 0.103
3 | HMQLTVAVLIKNISKGQVISQGFLGFEARPERQIRGAYTNISEVLGRKAKSNIAVGTILKARHLDT | -2.87
4 | HMEELIIQEELANKRLDIAISLLFPELTRAHAQKLIKEGSVLVDGKPRKASYPLTAGKRLSVTLPEPE | -0.172
5 | HMDVPNLVGKTLEEAENELKKLNIRYNVTERADEAPKDTVIEQSPKPYEAMEPGTVVNLVISSGPA | ≥ 1.04
6 | HMGPELGENEKLIFDIIKKESKMELGILKAQVDLSNKKWDKALKGLATHGLTKVNKTDDGLFIELI | -0.555
7 | HMTFNLDVDGDDQVTALGDGLMIIRKLFGATFAGDALTNKAISPDATRTTDEIHAYIEKGITSGVLD | -0.403
8 | HMDTNAIIGLRIKNLRTEKKYTLKYLSENTGLSIGFLSQLERGMTSIAIDSLDKISKVLDVELSSFFT | -1.69
9 | HMLQPQMKKFLNYESARNKMRPFGLSTRKEWRLFVDEGNRPADIPGDPYKKYKNKGWISWPHFLGK | -1.42
10 | HMEERDMKGSISDLVERYADQLTDEQLEEIVLGIKNGLLEEDVKSYFFLPAEDMRRIRTALEQVR | 0.0219
11 | HMAGWIPVEERLPDDLTNPITRDAYVYPVTVDLGDVTDIRYYSFWRGHWYNQGPETMDDLVIAWMLLPEPY | -0.279
12 | HMKGSPFSQLPKEKKKRILQAAIEVFAQNDYKHASTDEIASRAGISKGLLFYYFHDKKTLYFYLGEYLKR | 0.118
13 | HMYEDIDSAYRILEINSTVSNQEIKNAYRRMAKKYHPDKVAHLGVEHQKGAEEKFKKVQEAYILIKKRRG | -0.918
14 | HMLAAGTSLTVDTESSNLNIRQEPSTEGVILGKAAKGEVVTLVEQSSDEWWKIKTKDGEEGYAYARYLR | 0.175
15 | HMGNGDTNERIATLMQILAKQESIINQYGLENPVVSPQMYVRTLKKVVELSGFKDASSYFADIPDGWKA | 0.0405
16 | HMSGFFVYPNPAKSNIIHFPNKKSFYIYDTSGRLLIEGKGKDFIDVSTLDRGVYLLKTFENDIVKIII | -1.1
17 | HMGTNTTGWIKIADDWKYIDSNGEYTVNDWRQSADGGWYYLGYNGNMLKNQTTPDGYYVDAEGLWDGMSPA | -0.54
18 | HMYFNTADLKADSIHYGSTEQSVIKILGEPEYRETFVDNNVSYELFSYKGNLLLSFVENSLVSL | 0.147
19 | HMTAMDTQQKKLIIMYHDIHRLRNVEHFTIQRIADHLLLNFRTVKKFLEMTQEEFDKFSENRW | -2.89
20 | HMNYKNAIGQVGSVYVPIPPNREGLGQIEVKVQSRVSTVRAVSDHSERLENRVAVRVIELVDDRTLLVEKL | -1.15

Row | Sequence | soluble fraction (log2)
21 | HMDTLKDFISGVSIVFENKYSVGDNVTIGDFRGDVIELGMKTTKIRAYTGEVLIIPNHLVEKVINH | -1.56
22 | HMNEIYHQIKVDNVSDDDISLFQYSGIEFDHADYRRGEYIEFAISNRDLSILNNLGYEYQVVHH | -0.872
23 | HMSNEVSYSDFVRSVESDEVNAVTLDGEQIRFVGNDGQTYSVIKPADAQITQLLIDNNVTVRAEQQ | 0.123
24 | HMERLSNQVYAILKEMIADYRFNPGARINVEQIAKEVGASRTPVWEAVHRLVQEGLLENIPNRGVFML | -1.45
25 | HMKFTSEKDISLLELVKAKMGFVSNTKARNVIKIGQIMVSGKVIKIPSTLIKPGTEVELARRV | -1.76
26 | HMGDLVFDFVHGVHKAAEVEKELVMQALRFTHGNVSRAARLIGMQRSSLRYRIERYRLDAFVMEVAN | 0.276
27 | HMDYKSTLQELVQTVKKSVTYEVIDEEGPSHNKTFTSIVKIDGIVMGKGTAGSKKASEQEAARDALSKR | 0.42
28 | HMIDIDNLEKAAILLLSMGTEAAAKVMQKLSRDEVQRLISKMASLSGVSSIEAKWTLQQFFNQYREQSG | -0.786
29 | HMDFLKSVDLSKYSKVESLILSHLSKGDFDIDDFIRSFSLGTDEVTRAIVSLEIEGIILRKGNRIFRKKS | -1.38
30 | HMTKRKNTEFRQQQIIEAAAKLIFKYGSEHLTVKRIAAQVGISEAAIYRHFTSKKSILSFLLSHIEE | -0.362
31 | HMAQVDAVQQVLQAFPALRSGQSQHLSQVVAALRQRGILTVGTKTTAWFAQWASVFQLLPLQVPNRIRYQS | 0.0672
32 | HMDNREKLRQEFLENLKELQEQNDIPQQEIDRVILDYDGVAEFLEDEGALKRYGGQLVDMTAYRAGAIPS | 0.0771
33 | HMRAFTPSEAQVAHARRVMEAFWQHQREGHGAFALDGKMVDAPIVKAAARVLARAGLQDPNHPIHLA | -0.332
34 | HMTKIEYTEQEFNDFIQAYKNNRKMFPEDYIVKTQVVFINKGFSKSQADMIIAQIETRLRLQGE | -2.91
35 | HMHSFFGDNIKKLRTAKKMSQEQLADIFGITKAGISYWETGRSEPNFATVQKLADFFGVTTSDLLGEA | -0.43
36 | HMPDLSAEERNIVEALQKSNDLQVNLIAVKTGMDMGTLSATLFGLEMKGLVKLMAGGTYHLI | -1.11
37 | HMNFIPGEKINLKIVQEGKEKNQGVGYLSDGTMVIVENGSQKLGQDVEVVVIKNIQSSAGKIVFGDISK | 0.158
38 | HMRDQARQFFIDTWAKFQRHDALTPLEEKTAAIIALHPEYHRVLQNPESFITTDWRPESGDINPFMHL | -2.02
39 | HMVGNEEALRAIVESIIAQNTTEVASFREGKEGLIGWFLGQVMRQTGGKADPKLARQILLELLKQ | -0.449
